# Laboratory results taken from US20190328900A1 (GlaxoSmithKline, published 2019).
# Where “and” joins values, the source holds several entries; their conditions need not be identical. Identical values can stand only once.
# B1: VRC01-SA antibody-drug conjugate (antibody, human IgG1, V domains shown)
# VH: QVQLVQSGGQMKKPGESMRISCRASGYEFIDCTLNWIRLAPGKRPEWMGWLKPRGGAVNYARPLQGRVTMTRDVYSDTAFLELRSLTVDDTAVYFCTRGKNCDYNWDFEHWGRGTPVIVSS
# VL: EIVLTQSPGTLSLSPGETAIISCRTSQYGSLAWYQQRPGQAPRLVIYSGSTRAAGIPDRFSGSRWGPDYNLTISNLESGDFGVYYCQQYEFFGQGTKVQVDI
# modifications: payload-linker SA conjugated to lysines; sites and chain not stated; payload-linker SA (short linker payload A, succinimidyl ester) conjugated to lysines; sites and chain not stated; MS DAR 3.0
# B2: VRC01 broadly neutralizing antibody (antibody, human IgG1, V domains shown)
# VH: B1 VH
# VL: B1 VL
# B3: VRC01-LA antibody-drug conjugate (antibody, human IgG1, V domains shown)
# VH: B1 VH
# VL: B1 VL
# modifications: payload-linker LA conjugated to lysines; sites and chain not stated; payload-linker LA (long linker payload A, succinimidyl ester) conjugated to lysines; sites and chain not stated; MS DAR 3.4
# B4: VRC01-SB antibody-drug conjugate (antibody, human IgG1, V domains shown)
# VH: B1 VH
# VL: B1 VL
# modifications: payload-linker SB conjugated to lysines; sites and chain not stated; payload-linker SB (short linker payload B, succinimidyl ester) conjugated to lysines; sites and chain not stated; MS DAR 3.9
# B5: VRC01-LB antibody-drug conjugate (antibody, human IgG1, V domains shown)
# VH: B1 VH
# VL: B1 VL
# modifications: payload-linker LB conjugated to lysines; sites and chain not stated; payload-linker LB (long linker payload B, succinimidyl ester) conjugated to lysines; sites and chain not stated; MS DAR 3.8
# B6: VRC01-LA-SB dual-payload antibody-drug conjugate (antibody, human IgG1, V domains shown)
# VH: B1 VH
# VL: B1 VL
# modifications: payload-linkers LA and SB conjugated to lysines; sites and chain not stated; payload-linkers LA and SB conjugated to lysines; sites and chain not stated; MS DAR 1.6 (LA) and 1.3
# B7: VRC01-LA-LB dual-payload antibody-drug conjugate (antibody, human IgG1, V domains shown)
# VH: B1 VH
# VL: B1 VL
# modifications: payload-linkers LA and LB conjugated to lysines; sites and chain not stated; payload-linkers LA and LB conjugated to lysines; sites and chain not stated; MS DAR 1.6 (LA) and 1.2 (LB)
# Molecular target: T1, HIV gp160 envelope glycoprotein on pseudotyped virus (clone not named) (HIV)
# Assay: cell-based or functional assay
Binder,"IC50 (N = 1), pseudotyped virus (PSV) infection, luciferase","IC50 (N = 2), pseudotyped virus (PSV) infection, luciferase"
B1,~2.7 nM and 0.418 µg/mL,0.226 µg/mL and ~1.5 nM
B2,~0.667 µM,~0.667 µM
B3,0.0753 µg/mL and ~0.5 nM,0.0413 µg/mL and ~0.27 nM
B4,0.617 µg/mL and ~4 nM,0.772 mg/L
B5,0.526 µg/mL and ~3.4 nM,~0.0019 µM

# Molecular target: T1, HIV gp160 envelope glycoprotein on …
# Assay: cell-based or functional assay
# Remark: another data set of the same source
Binder,"IC50 (N = 1), pseudotyped virus (PSV) infection, luciferase","IC50 (N = 2), pseudotyped virus (PSV) infection, luciferase"
B6,0.104 µg/mL and ~0.7 nM,0.106 µg/mL and ~0.7 nM
B7,0.154 mg/L,0.107 µg/mL and ~0.7 nM
